The values that follow come from US20220177587A1, “METHODS AND USES OF VARIANT CD80 FUSION PROTEINS AND RELATED CONSTRUCTS” (Alpine Immune Sciences, Inc., priority 2018, published 2022).

Like-named read-outs stand apart in the source and are kept apart here.

Assay [1] has as its target CD28 (human) (UniProt P10747).
In assay [2] the target is PD-L1 (human) (UniProt Q9NZQ7).
Assay [3] has as its target CD28 (human) (UniProt P10747). This is another data set of the same source.
The target in assay [4] is PD-L1 (human) (UniProt Q9NZQ7). The source holds these as a separate data set.

Sequence of PD-L1 (human) (Q9NZQ7 19-290): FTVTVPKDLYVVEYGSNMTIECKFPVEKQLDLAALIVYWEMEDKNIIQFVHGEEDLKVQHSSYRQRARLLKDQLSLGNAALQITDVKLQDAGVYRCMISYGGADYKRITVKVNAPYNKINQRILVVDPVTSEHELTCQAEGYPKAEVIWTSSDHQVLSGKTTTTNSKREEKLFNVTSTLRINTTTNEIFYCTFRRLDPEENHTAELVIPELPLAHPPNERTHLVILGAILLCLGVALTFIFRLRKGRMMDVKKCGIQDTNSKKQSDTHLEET

On to “CD80 A26E/E35D/M47L/A71G IgV-Fc (inert) (Fc fusion)”, for which the Jurkat/IL2 reporter RLU at 50 nM, K562/OKT3/PD-L1 aAPC with CD28 (human) [1] and with PD-L1 (human) [2] was 1750 RLU in each case.

On to “CD80 E35D/A71D/L72V/R73H/E81K IgV-Fc (inert) (Fc fusion)”, for which the Jurkat/IL2 reporter RLU at 50 nM, K562/OKT3/PD-L1 aAPC with CD28 (human) [1] and in the assay with PD-L1 (human) [2] was 282 RLU each time.

Consider “CD80 E35D/A71G IgV-Fc (inert) (Fc fusion)”, for which the Jurkat/IL2 reporter RLU at 50 nM, K562/OKT3/PD-L1 aAPC with CD28 (human) [1] and in the assay with PD-L1 (human) [2] was 1190 RLU each time.

On to “CD80 E35D/D46E/M47V/A71D IgV-Fc (inert) (Fc fusion)”, for which the Jurkat/IL2 reporter RLU at 50 nM, K562/OKT3/PD-L1 aAPC with CD28 (human) [1] and in the assay with PD-L1 (human) [2] was 683 RLU throughout.

Consider “CD80 E35D/D46E/M47V/A71D/D90G IgV-Fc (inert) (Fc fusion)”, for which the Jurkat/IL2 reporter RLU at 50 nM, K562/OKT3/PD-L1 aAPC in the assay with CD28 (human) [1] and in the assay with PD-L1 (human) [2] was 1040 RLU each time.

For the substance “CD80 E35D/D46E/M47V/N63D/L85Q IgV-Fc (inert) (Fc fusion)”, the Jurkat/IL2 reporter RLU at 50 nM, K562/OKT3/PD-L1 aAPC in the assay with CD28 (human) [1] and with PD-L1 (human) [2] was 1380 RLU throughout.

As for “CD80 E35D/D46V/M47L/V68M/L85Q/E88D IgV-Fc (inert) (Fc fusion)”, the Jurkat/IL2 reporter RLU at 50 nM, K562/OKT3/PD-L1 aAPC with CD28 (human) [1] and in the assay with PD-L1 (human) [2] was 1460 RLU each time.

For “CD80 E35D/K37E/M47V/N48D/L85Q/D90N IgV-Fc (inert) (Fc fusion)”, the Jurkat/IL2 reporter RLU at 50 nM, K562/OKT3/PD-L1 aAPC with CD28 (human) [1] and with PD-L1 (human) [2] was 851 RLU in each case.

With “CD80 E35D/L85Q/K93T/E95V/L97Q IgV-Fc (inert) (Fc fusion)”, the Jurkat/IL2 reporter RLU at 50 nM, K562/OKT3/PD-L1 aAPC with CD28 (human) [1] and with PD-L1 (human) [2] was 315 RLU each time.

On to “CD80 E35D/M38T/D46E/M47V/N48S IgV-Fc (inert) (Fc fusion)”, for which the Jurkat/IL2 reporter RLU at 50 nM, K562/OKT3/PD-L1 aAPC in the assay with CD28 (human) [1] and in the assay with PD-L1 (human) [2] was 1320 RLU throughout.

In the case of “CD80 E35D/M38T/M43V/M47V/N48R/L85Q IgV-Fc (inert) (Fc fusion)”, the Jurkat/IL2 reporter RLU at 50 nM, K562/OKT3/PD-L1 aAPC in the assay with CD28 (human) [1] and with PD-L1 (human) [2] was 680 RLU each time.

For “CD80 E35D/M43I/M47V/K89N IgV-Fc (inert) (Fc fusion)”, the Jurkat/IL2 reporter RLU at 50 nM, K562/OKT3/PD-L1 aAPC with CD28 (human) [1] and with PD-L1 (human) [2] was 1090 RLU each time.

For “CD80 E35D/M47I/L85Q/D90G IgV-Fc (inert) (Fc fusion)”, the Jurkat/IL2 reporter RLU at 50 nM, K562/OKT3/PD-L1 aAPC with CD28 (human) [1] and in the assay with PD-L1 (human) [2] was 1440 RLU in each case.

Take “CD80 Q33R/E35D/K37E/M47V/L85Q IgV-Fc (inert) (Fc fusion)”: the Jurkat/IL2 reporter RLU at 50 nM, K562/OKT3/PD-L1 aAPC in the assay with CD28 (human) [3] and with PD-L1 (human) [4] was 464 RLU in each case.

On to “CD80 S15P/Q33L/E35D/M47L/L85Q IgV-Fc (inert) (Fc fusion)”, for which the Jurkat/IL2 reporter RLU at 50 nM, K562/OKT3/PD-L1 aAPC with CD28 (human) [3] and with PD-L1 (human) [4] was 468 RLU each time.

For “CD80 V22A/E23D/Q33L/E35D/M47V IgV-Fc (inert) (Fc fusion)”, the Jurkat/IL2 reporter RLU at 50 nM, K562/OKT3/PD-L1 aAPC with CD28 (human) [3] and with PD-L1 (human) [4] was 390 RLU in each case.

As to “CD80 V22A/E35D/V68E/A71D IgV-Fc (inert) (Fc fusion)”, the Jurkat/IL2 reporter RLU at 50 nM, K562/OKT3/PD-L1 aAPC with CD28 (human) [3] and with PD-L1 (human) [4] was 538 RLU in each case.

Regarding “CD80 V22A/R29H/E35D/D46E/M47I IgV-Fc (inert) (Fc fusion)”, the Jurkat/IL2 reporter RLU at 50 nM, K562/OKT3/PD-L1 aAPC with CD28 (human) [3] and with PD-L1 (human) [4] was 3310 RLU in each case.

With “CD80 Y31S/E35D/M47L/T79L/E88G IgV-Fc (inert) (Fc fusion)”, the Jurkat/IL2 reporter RLU at 50 nM, K562/OKT3/PD-L1 aAPC with CD28 (human) [3] and with PD-L1 (human) [4] was 496 RLU each time.

For the substance WT CD80-ECD-Fc (effector) (Fc fusion), the Jurkat/IL2 reporter RLU at 50 nM, K562/OKT3/PD-L1 aAPC is 3040 RLU with CD28 (human) [3] and 1790 RLU with CD28 (human) [1].
